# Experimental data as given in publication PMC10946715.
# Molecular target: Cyc15 (Streptomyces sp. NL15-2 K)
# Assay: crystal structure; X-ray crystal structure of Cyc15 at 1.7 Å, molecular replacement with an AlphaFold 2.0 search model; asymmetric unit with two molecules (Chain A and Chain B)
substance,measurement,value
Cyc15 (enzyme),stoichiometry N,2
